Measurements published in publication PMC2988884 (Nature structural & molecular biology, 2010).

T1: Trs120 with a C-terminal TAP tag (Trs120-TAP) (S. cerevisiae (endogenous in yeast), UniProt Q04183 1-1289)
T1 sequence (looked up): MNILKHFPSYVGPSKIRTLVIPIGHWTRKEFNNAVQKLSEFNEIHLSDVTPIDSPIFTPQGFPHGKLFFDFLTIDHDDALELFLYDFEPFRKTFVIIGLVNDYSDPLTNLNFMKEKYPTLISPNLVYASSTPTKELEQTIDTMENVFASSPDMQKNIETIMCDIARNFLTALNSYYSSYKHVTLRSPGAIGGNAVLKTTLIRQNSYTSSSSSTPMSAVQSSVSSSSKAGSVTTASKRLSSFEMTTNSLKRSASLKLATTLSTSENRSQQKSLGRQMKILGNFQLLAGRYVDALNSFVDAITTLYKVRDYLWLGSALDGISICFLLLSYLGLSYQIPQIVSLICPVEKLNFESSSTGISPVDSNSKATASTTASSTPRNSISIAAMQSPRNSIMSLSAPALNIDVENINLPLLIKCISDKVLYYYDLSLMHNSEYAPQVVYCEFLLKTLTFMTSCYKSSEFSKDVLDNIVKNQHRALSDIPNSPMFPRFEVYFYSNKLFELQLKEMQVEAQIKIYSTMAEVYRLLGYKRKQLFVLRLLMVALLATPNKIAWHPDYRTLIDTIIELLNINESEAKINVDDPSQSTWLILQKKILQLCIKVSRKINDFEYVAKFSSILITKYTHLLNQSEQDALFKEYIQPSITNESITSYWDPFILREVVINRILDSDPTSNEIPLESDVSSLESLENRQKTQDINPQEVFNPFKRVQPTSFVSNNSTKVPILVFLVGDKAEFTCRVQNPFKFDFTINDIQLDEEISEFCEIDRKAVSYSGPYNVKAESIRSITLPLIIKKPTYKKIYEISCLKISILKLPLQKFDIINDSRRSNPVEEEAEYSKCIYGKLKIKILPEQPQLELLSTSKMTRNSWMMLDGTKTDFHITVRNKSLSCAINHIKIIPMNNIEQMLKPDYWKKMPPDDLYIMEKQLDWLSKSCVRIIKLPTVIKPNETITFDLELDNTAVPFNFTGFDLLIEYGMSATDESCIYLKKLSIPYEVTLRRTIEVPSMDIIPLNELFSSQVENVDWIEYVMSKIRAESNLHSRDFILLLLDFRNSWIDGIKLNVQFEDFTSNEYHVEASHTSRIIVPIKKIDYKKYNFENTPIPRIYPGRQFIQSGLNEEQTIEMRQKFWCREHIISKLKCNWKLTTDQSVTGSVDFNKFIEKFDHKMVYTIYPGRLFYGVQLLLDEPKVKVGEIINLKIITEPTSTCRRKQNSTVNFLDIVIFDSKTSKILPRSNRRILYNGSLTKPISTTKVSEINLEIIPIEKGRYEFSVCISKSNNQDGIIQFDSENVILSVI

B1: Trs130 (natural protein, S. cerevisiae (endogenous in yeast), UniProt Q03660 1-1102, looked up)
chain: MDKEIYCGSVPVSYFDPFDLFESLRPEFQQILPLDNIHWKAFDGTVRTVNRLPIELIPEGRGEADKSNDEQPFIRFLIVNCISIDQYRAKVRPLVRQWLPNLESVSSSTGEKMIYKPIILLYANSEVVDSNLFKSVSLMEKFGKDFPHVQTLEVRSVYRSPKERQEFWNQFSQKIKASVLSIFQKRLTHLQHSLANLQKGNNFEEQLLTREKLYELYVVFNILEDASLELQKIKKEILRRNMNMPDGKLQVPFESSSKSDESLGSIIIEGTLDKFQLHKYFFIRRLRLLKLEDQTLTAFVGAFQLIKNFIESISIEYRKSVRLLEFKHYFITSMLSYFEFENVSNPLLCEIKAELLMLKRDNWVQGVMATSGYRLMDKNYPNSDVKYKFDLLKETFVDETVFQENFLTLTKEILSLFNKCEGKRQRIVDILSIEIGLLYYQGKKYEEAVSLFLSCYEYYTQTNWNSIGLKILQVFIDSLSHCPKLDVLQIDGESVSASAVLTNAFLNILKLCKDNDSKEIWWKKFMDLQMKNNIHLMYPLDGLFEVTLNSKVHLARANVSAIEVNLKSYGFPEDISTKTMRLSLKNMGGDVIVFGASDFLLKKGENKLILECRDIMYGEFSLLSFEIIVEGITFVKEFPENQDEFIVVPEIYCKESTKVLVKQAHNLNLGEYALELKSVQSDALESLQVEVEVQKNIGNMKNLPVSFSMDEIQARKRYNTPFENVRLEYYLLDQITAFDLIIKTSFTKKNDQGTFGETKKVRIQCYLQLSVSVEDIFKKDIFFFKFLLNSSVREEPVILYSSELSAPDTRNDYNIRGDYIATTPALITFDGNESFINCYEITANNNFDSKDIFNLKVRYNTLKEQLDCFITDAVLIEGDVEWFILFEKWKTFWELEILKKLKYDYDAFKENRIIRLLKTSIDLNKTKSKIRNLCIEKAVLDKILICLNKVSRGIAVCNTDMDEYVRNLVPKQLTVPVQLPGFEQFFHVQFEQMETSHDALHDTIATIGNSLSYTVIVENLSGQWGQDVIDDGGYIFEILSSNEWLIHGQKRCAIKEKRKEFEVHLIPLKKGYLNFPRVEITNINGKSCRVDHSNAFESILIF

Tests used:
[1] = molecular target: T1, Trs120 with a C-terminal TAP tag …; test: single-particle EM
Trs130 = molecular target: B1; test: single-particle EM

Row | binding result [1] | binding result (Trs130) | Binder
1 | binds |  | Bet3 (natural protein, S. cerevisiae (endogenous in yeast), UniProt P36149 1-193, looked up) MVSTTQSRSLKAMGEEIWKNKTEKINTELFTLTYGSIVAQLCQDYERDFNKVNDHLYSMGYNIGCRLIEDFLARTALPRCENLVKTSEVLSKCAFKIFLNITPNITNWSHNKDTFSLILDENPLADFVELPMDAMKSLWYSNILCGVLKGSLEMVQLDCDVWFVSDILRGDSQTEIKVKLNRILKDEIPIGED
2 | binds |  | B1
3 | binds |  | Trs33 (natural protein, S. cerevisiae (endogenous in yeast), UniProt Q99394 1-268, looked up) MSSTHSNNVGHPQSSPQGPLTEQQRAQQQYQIFENSLPKVSQSVYQMLLNEMVPLAMGIERQISGDVISSDSNVTSENGNINNMIKRLKIEEHHTVDIIRSHNLIHELYKADEEEKEKVLARLRNIGFQIGLKLSELLIFSNNPNLKFKEMDLLLIMKFICRDVWKQIFGKQIDNLKTNHRGTFYLLDYDYRPIQSFSLEEDAKNEELKMIEPFLEIPVGIIRGVLSSLGYSSEEVICLASFIDRPTDRPKTAFPKGVSFHVQVTMPQ
4 |  | binds | Trs20 (natural protein, S. cerevisiae (endogenous in yeast), UniProt P38334 1-175, looked up) MPQYFAIIGKKDNPVYEIEFTNAENPQGFPQDLKELNPFILHASLDIVEDLQWQINPTSQLNGNGGNGSNGGGGFLRSRAVNNTDNCYLGKVDHFYGLAITAYISYSGMKFVMIHGNSANSSVVIDDNNMRSFYQEVHELYVKTLMNPFYKITDPIRSPAFDSRVRTLARKHLSK
